According to patent publication US20140302020A1 (ALETHIA BIOTHERAPEUTICS, published 2014):
Blank lines part the entries; values can stand above or below the binder they belong to.

Legend:
[1] = molecular target: T1, recombinant monomeric human clusterin (human, UniProt P10909 23-449); experiment: SPR (BIAcore 3000), recombinant monomeric human clusterin amine-coupled to a CM3 chip, Fab injected
T1 construct: Tags and processing into alpha and beta chains are not described; also called recombinant human clusterin; immobilized clusterin
T1 sequence (P10909 23-449 limits assumed): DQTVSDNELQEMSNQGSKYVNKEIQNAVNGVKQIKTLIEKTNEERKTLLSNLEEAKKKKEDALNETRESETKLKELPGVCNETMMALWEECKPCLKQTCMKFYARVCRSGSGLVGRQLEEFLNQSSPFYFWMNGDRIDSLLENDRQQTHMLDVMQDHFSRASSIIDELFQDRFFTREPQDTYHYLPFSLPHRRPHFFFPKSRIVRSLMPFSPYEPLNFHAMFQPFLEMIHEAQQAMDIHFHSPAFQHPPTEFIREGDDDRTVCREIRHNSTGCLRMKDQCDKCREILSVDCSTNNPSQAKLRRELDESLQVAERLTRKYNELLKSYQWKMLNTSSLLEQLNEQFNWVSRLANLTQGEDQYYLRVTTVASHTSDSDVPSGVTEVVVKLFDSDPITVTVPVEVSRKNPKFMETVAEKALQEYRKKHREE
Protocol: (§1) HBST (10 mM Hepes pH 7.4, 135 mM NaCl, 3.4 mM EDTA, 0.005% Tween 20) was used as running buffer for all BIAcore experiments. Recombinant monomeric clusterin was immobilized on a CM3 chip with normal amine coupling method at a flow of 5 μl/min. Surface was activated with 35 μl of a mixture of 50 mM NHS/0.2M EDC. Clusterin in 10 mM Na-acetate pH 4.5 was injected until a desired amount was captured (below 60RU). Unreacted esters were deactivated with 35 μl of 1M ethanolamine hydrochloride-NaOH pH8.5. A control surface was prepared by injecting NHS/EDC and ethanolamine in the same manner.
(§2) Kinetics analysis was conducted at a flow of 50 μl/min. Full length antibodies (mouse or humanized) or Fab were diluted in HBST. Concentration range was from 1.953-31.25 nM for the full length antibodies and 15.625-250 nM for the Fab. Each concentration was injected over the clusterin and a control surface for 5 min followed with a 5 min dissociation wash. The clusterin surface was regenerated between each antibody injection with 50 μl of 20 mM HCl.

[2] = molecular target: T1, recombinant monomeric human clusterin; experiment: SPR (BIAcore 3000), recombinant monomeric human clusterin amine-coupled to a CM3 chip, full length antibody injected
Protocol: as §1, §2

[3] = molecular target: T1, recombinant monomeric human clusterin; experiment: SPR (BIAcore 3000), recombinant monomeric human clusterin amine-coupled to a CM3 chip, Fab injected; remark: listed apart in the source
Protocol: (§3) The purpose of these investigations is to determine the kinetics parameters of anti-clusterin antibodies. In particular, to determine whether the humanization of the 16B5 and 21B12 anti-clusterin monoclonal antibody affects the kinetics parameters of its binding to human clusterin. To this end, a kinetic analysis method was developed using the BIAcore 3000. Human clusterin was immobilized on a sensor chip. Full length antibodies or Fab fragments were injected and allowed to interact with the immobilized clusterin. This example described the exemplary antibody 16B5 but the 21B12 exemplary antibody was prepared and tested in a similar manner.
as §1, §2

[4] = molecular target: T1, recombinant monomeric human clusterin; experiment: SPR (BIAcore 3000), recombinant monomeric human clusterin amine-coupled to a CM3 chip, full length antibody injected; remark: listed apart in the source
Protocol: as §3, §1, §2

Kd [1]: 41.6 nM | koff [1]: 0.003 s⁻¹ | kon [1]: 74100 M⁻¹ s⁻¹
B1: mouse 16B5 Fab (Fab, V domains shown)
VH: EVQLQQSGAELVKPGASVRLSCTTSGFNIKDIYMHWVKQRPEQGLEWIGRIDPAYGNTKYDPKFQGKATITADTSSNTAYLQLSSLTSEDTAVYYCARRYDTAMDYWGQGTSVTVSS
VL: DIVMSQSPSSLAVSAGEKVTMSCKSSQSLLNSRTRKNYLAWYQQKPGQSPKLLIYWASTRESGVPDRFTGSGSGTDFTLTISSVQAEDLAVYYCKQSYNLWTFGGGTKLEFK
notes: also called Fab mouse antibody

Kd [2]: 6.64 nM | koff [2]: 0.0017 s⁻¹ | kon [2]: 329000 M⁻¹ s⁻¹
B2: mouse 16B5 anti-clusterin monoclonal antibody (full length) (antibody, V domains shown)
VH: B1 VH
VL: B1 VL
notes: Full-length mouse IgG purified from the original hybridoma; also called murine 16B5; hybridoma 16B5

Kd [4]: 5.09 nM | koff [4]: 0.0015 s⁻¹ | kon [4]: 362000 M⁻¹ s⁻¹
B6: mouse 21B12 anti-clusterin monoclonal antibody (full length) (antibody, V domains shown)
VH: QIQLVQSGPELKKPGETVKISCKASGYTFTNYGMHWVKQAPGKGLKWMGWINTYTGEPTYADDFKGRFAFSLETSASTAYLQINNLKNEDTATYFCARDGFLYFFDYWGQGTTLTVSS
VL: DIVMSQSPSSLAVSVGEKVTMSCKSSQSLLYSSNQKNYLAWYQQRPGQSPKLLIYWASTRESGVPDRFTGSGSGTDFTLTISSVKAEDLAVYYCQQYYIYPRTFGGGTKLEIK
notes: also called murine 21B12; parent mouse 21B12

Kd [4]: 2.23 nM | koff [4]: 0.00083 s⁻¹ | kon [4]: 374000 M⁻¹ s⁻¹
B7: humanized 21B12 anti-clusterin antibody (full length, human IgG2) (antibody, V domains shown)
VH: QVQLVQSGSELKKPGASVKVSCKASGYTFTNYGMHWVRQAPGQGLEWMGWINTYTGEPTYADDFKGRFVFSLDTSVSTAYLQISSLKAEDTAVYYCARDGFLYFFDYWGQGTLVTVSS
VL: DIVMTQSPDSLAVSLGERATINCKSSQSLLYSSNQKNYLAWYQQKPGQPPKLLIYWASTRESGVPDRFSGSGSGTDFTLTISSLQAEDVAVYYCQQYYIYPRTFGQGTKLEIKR
notes: also called HH21B12

The remaining lines, values behind:

B3: humanized 16B5 anti-clusterin antibody (full length, human IgG2) (antibody, V domains shown)
VH: QVQLVQSGAEVKKPGATVKISCKVSGFNIKDIYMHWVQQAPGKGLEWMGRIDPAYGNTKYDPKFQGRVTITADTSTDTAYMELSSLRSEDTAVYYCARRYDTAMDYWGQGTLVTVSS
VL: DIVMTQSPDSLAVSLGERATINCKSSQSLLNSRTRKNYLAWYQQKPGQPPKLLIYWASTRESGVPDRFSGSGSGTDFTLTISSLQAEDVAVYYCKQSYNLWTFGQGTKLEIKV
notes: also called h16B5; H16B5
Kd [2]: 4.49 nM | koff [2]: 0.0015 s⁻¹ | kon [2]: 345000 M⁻¹ s⁻¹

B4: humanized 16B5 Fab (Fab, V domains shown)
VH: B3 VH
VL: DIVMTQSPDSLAVSLGERATINCKSSQSLLNSRTRKNYLAWYQQKPGQPPKLLIYWASTRESGVPDRFSGSGSGTDFTLTISSLQAEDVAVYYCKQSYNLWTFGQGTKLEIK
notes: The preparation still held some F(ab')2; also called HH16B5 Fab; HH 16B5 Fab
Kd [1]: 17.2 nM | koff [1]: 0.0027 s⁻¹ | kon [1]: 159000 M⁻¹ s⁻¹

B5: 21B12 Fab (Fab, V domains shown)
VH: B6 VH
VL: B6 VL
notes: also called mouse 21B12 Fab; Fab fragment of the murine 21B12 anti-clusterin antibody
Kd [3]: 25.3 nM | koff [3]: 0.00352 s⁻¹ | kon [3]: 215000 M⁻¹ s⁻¹
